The values below come from patent US20210395356A1 (Chugai, published 2021).

Assay [1] has as its target T1, flag-tagged mouse LAP (mouse).
T1 construct: also called recombinant mouse latency associated protein (LAP); mouse latency associated peptide
T1 chain: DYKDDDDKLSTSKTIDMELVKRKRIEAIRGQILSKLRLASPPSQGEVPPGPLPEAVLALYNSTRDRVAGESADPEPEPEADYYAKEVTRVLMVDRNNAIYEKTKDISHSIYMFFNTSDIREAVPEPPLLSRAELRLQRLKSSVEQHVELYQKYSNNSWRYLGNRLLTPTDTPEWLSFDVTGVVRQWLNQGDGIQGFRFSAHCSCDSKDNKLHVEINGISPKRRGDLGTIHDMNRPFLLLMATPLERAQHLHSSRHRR
Nature of the assay: ELISA, plate coated with mouse LAP, anti-human IgG-HRP detection. In general terms: An ELISA detects its analyte on a solid surface through an enzyme-linked reagent.

Assay [2] has as its target T2, mouse mature TGF-beta 1 (mouse, UniProt P04202 279-390).
T2 construct: mature
Nature of the assay: ELISA, plate coated with mouse mature TGF-beta 1, anti-human IgG-HRP detection.
Method: (§1) 384-well plate was coated with mouse or human mature TGF-beta 1 for overnight at 4 degree C., and then washed four times with PBS-T. After washing, the plate was blocked with blocking buffer (1×TBS/Tween-20+0.5% BSA+1× Block ace) for at least 1 hour at room temperature, and then washed four times with PBS-T. After washing, an antibody solution was added to the plate and incubated for 2 hours at room temperature, and then washed four times with PBS-T. After washing, diluted secondary antibody (goat anti-human IgG-HRP, Abcam, Cat. ab98624) was added to the plate and incubated for 1 hour at room temperature, and then washed four times with PBS-T. After washing, TMB solution was added to the plate and incubated for 15 minutes at room temperature, then 1N sulfuric acid was added to stop the reaction. The absorbance (optical density; OD) was measured at 450 nm/570 nm.

Assay [3] deals with T3, flag-tagged cynomolgus monkey latent TGF-beta 1 (cynomolgus monkey, UniProt P01137 34-390 (human entry), limits assumed).
T3 construct: also called monkey latent TGF-beta 1 (SLC); Cyno latent TGF-beta 1
Nature of the assay: SPR Biacore 8k, antibody captured by anti-human kappa, latent TGF-beta 1 (SLC) as analyte, 37 C, 1:1 model. A general note: In SPR one partner is held on a chip, and binding of the other changes the refractive index at the surface.
Method: (§2) Mouse anti-human Ig kappa light chain antibody (BD Pharmingen) was immobilized onto all flow cells of a CMS sensor chip using amine coupling kit (GE Healthcare). […] All antibodies and analytes were prepared in ACES pH 7.4 containing 20 mM ACES, 150 mM NaCl, 0.05% Tween 20, 0.005% NaN₃. Assay temperature was set at 37 degrees C. Sensor surface was regenerated each cycle with 10 mM Glycine-HCl, pH2.1. Binding activity was determined by processing and fitting the data to 1:1 binding model using Biacore Insight Software, version 1.1.1.7442 (GE Healthcare).

The target in assay [4] is T4, flag-tagged mouse latent TGF-beta 1 (mouse, UniProt P04202 34-390).
T4 construct: also called mouse latent TGF-beta 1 (SLC); mSLC
The description is as above.
Method: as §2

The target of assay [5] is T5, flag-tagged human latent TGF-beta 1 (human, UniProt P01137 34-390).
T5 construct: Small latent complex: homodimer of LAP and mature TGF-beta 1 held non-covalently; also called human latent TGF-beta 1 (SLC); hSLC
The assay is described as above.
Method: as §2

Assay [6] has as its target T6, human mature TGF-beta 1 (human, UniProt P01137 279-390).
T6 construct: mature
Nature of the assay: ELISA, plate coated with human mature TGF-beta 1, anti-human IgG-HRP detection.
Method: as §1

Changes are numbered by the printed parent chain.

T6 sequence (P01137 279-390 limits assumed): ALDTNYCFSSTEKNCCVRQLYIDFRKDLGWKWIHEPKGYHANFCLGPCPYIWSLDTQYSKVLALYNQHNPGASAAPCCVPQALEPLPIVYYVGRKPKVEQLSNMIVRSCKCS

B1: hT0947AE08-SG191 (antibody, IgG1, V domains shown)
VH: QVQLVESGGGVVQPGRSLRLSCAASGFTFSSYAMNWIRQPPGKGLEWIGYIYTSGTRYRANWARGRFTISRDNSKNTLYLQMNSLRAEDTAVYYCARGTDIYDYYYWVMDLWGPGTLVTVSS
VL: DIQMTQSPSSLSASVGDRVTITCQASQSISTYLAWYQQKPGQPPKLLIYAASTLESGVPSRFSGSGSGTDFTLTISSLQPEDFATYYCQSYSDGDSVGFGQGTKVEIKR
notes: Humanized, optimized IgG1; also called hT0947AE08-5G191
In the case of B1, the binding result in assay [1] is “binds”; in assay [2], “no binding (tested: 10 ug/mL)”; in assay [6] it was “no binding (tested: 10 ug/mL)”. Moreover, the dissociation constant (Kd) (usually a measure of binding affinity in units of concentration) came out at 1 nM in assay [3], 1.1 nM in assay [4] and 1.13 nM in assay [5]. The koff (as a rule, the rate constant with which the complex falls apart) is 0.000326 s⁻¹ in assay [3], 0.000319 s⁻¹ in assay [4] and 0.00043 s⁻¹ in assay [5]. In addition, the on-rate constant (kon) – broadly, a measure of how fast the partners come together – in assay [3] was determined as 325000 M⁻¹ s⁻¹; in assay [4] it was 292000 M⁻¹ s⁻¹; in assay [5], 381000 M⁻¹ s⁻¹.

B2: hT0947AE09-SG191 (antibody, IgG1, V domains shown)
VH: B1 VH
VL: B1 VL with G94A
notes: Humanized, optimized IgG1; also called hT0947AE09-5G191; hT0947A09-SG191
In the case of B2, the binding result in assay [1] was “binds”; in assay [2] it was “no binding (tested: 10 ug/mL)”; in assay [6], “no binding (tested: 10 ug/mL)”. The Kd came to 2.24 nM in assay [3], 1.6 nM in assay [4] and 2.15 nM in assay [5]. Also, the off-rate constant (koff) in assay [3] came out at 0.000659 s⁻¹; in assay [4], 0.000388 s⁻¹; in assay [5], 0.000727 s⁻¹. The values for the association rate constant (kon) in assay [3], in assay [4] and in assay [5] were 294000 M⁻¹ s⁻¹, 243000 M⁻¹ s⁻¹ and 339000 M⁻¹ s⁻¹, respectively.

B3: hT0947AE04-SG191 (antibody, IgG1, V domains shown)
VH: B1 VH with R57T, R59H, D100F, Y102W
VL: B1 VL with A50K, G94A
notes: Humanized, optimized IgG1
As to B3, the binding result is given as “binds” in assay [1] and “no binding (tested: 10 ug/mL)” in assay [2]. The molecule also displayed a Kd in assay [4] of 1.89 nM.
